Measured values taken from patent US20260193326A1 (published 2026).
Where a chain is given by its changes, count along the chain named.

B1: A4-011 (VHH)
VHH: VQLQESGGGLVQAGGSLRLSCAASGSIFSINSMGWYRQAPGKQRELVATVTRGGNTNYAGSVKGRFTISRDNAKNTVYLQMNSLRPEDTAVYYCHVDEVRESSWTTSNLWGQGTQVTVSS
B2: A4-012 (VHH)
VHH: B1 VHH with L10A
B3: A4-048 (VHH)
VHH: B1 VHH with A13P, I27M, S32T, E101Q
B4: A4-038 (VHH)
VHH: B1 VHH with A13P, I27H, S32T, N55S, G60N, V96L, E101Q
B5: A4-044 (VHH)
VHH: B1 VHH with A13P, I27S, S32T, N55V, G60D, E101Q
B6: A4-021 (VHH)
VHH: B1 VHH with I27T, S32T, V50I, G60D, E101Q, L109I
B7: A4-046 (VHH)
VHH: B1 VHH with A13P, I27R, S32T, N55S, G60D, E101Q
B8: A4-032 (VHH)
VHH: B1 VHH with A13P, A22V, I27S, S32T, G53D, N55S, G60N, E101Q
B9: A4-024 (VHH)
VHH: B1 VHH with A13P, I27N, S29R, S32T, N55S, G60D, A73P
B10: A4-039 (VHH)
VHH: B1 VHH with A13P, I27G, S32T, Q43W, N55S, V96I, E101Q
B11: A4-001 (VHH)
VHH: B1 VHH with A13P, S26R, I27S, S32T, N55S, V96I, E101Q, L109I
B12: A4-034 (VHH)
VHH: B1 VHH with A13P, S26R, I27G, S32T, T49A, N55T, G60D, E101Q
B13: A4-112 (VHH)
VHH: VQLQESGGGLVQTGGSLRLSCIASGSIFSINTVGWYRQAPPKQRELVATVTRAGSTWYAGSVKGRFTISRDNAKNTIYLQMNTLRPEDTAVYYCHVDEVRQSTWTTSNIWGQGTQVTVSS
B14: A4-113 (VHH)
VHH: B13 VHH with I22V, I27R, P41G, A53G, A73T, T83S, V99I, I109L
B15: A4-108 (VHH)
VHH: VQLQESGGGLAQPGGSLRLSCLASGSGFSINTMGWYRQAPPKWRELVATVTRGGSTNYAGSVKGRFTISRDNPKNTVYLQMNSLRPEDTAVYYCHLDEVRQSTWTTSNIWGQGTQVTVSS
B16: A4-102 (VHH)
VHH: B1 VHH with A13P, I27H, S29T, M33V, T49P, N55T, G60D, S61F, V99L, E101D
B17: A4-106 (VHH)
VHH: VQLQESGGGLVQPGGSLRLSCIASGSIFSLNAMGWYRQAPGKQRELVATITSGGSTNYADSVKGRFTISRDNAKNTAYLQMNNLQPEDTAVYYCHVDEVRESIWTTSNLWGQGTQVTVSS
B18: A4-109 (VHH)
VHH: B1 VHH with S26T, I30L, S32V, T49S, G60D, N75T, V99L, E101D, S103T
B19: A4-107 (VHH)
VHH: B15 VHH with A11V, L22I, M33V, P41A, W43Q, V50L, G60D, L96V, T103S
B20: A4-110 (VHH)
VHH: VQLQESGGGLVQPGGSLRLSCFASGTNFSINVVGWYRQAPGKQRELVATITRGGSTNYAESVKGRFTISRDNAKNTVYLQMNNLRPEDTAVYYCHLDEVRDSSWTTSNLWGQGTQVTVSS
B21: A4-104 (VHH)
VHH: B17 VHH with I22A, A32S, D60G, A77V, I103S

Molecular target: T1, AAV8
T1 construct: also called adeno-associated virus serotype 8
Assay: SPR, AAV on CM5 chip;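 note: surface plasmon resonance with AAV amine-coupled to the chip as ligand, nanobodies injected as analyte over a concentration series, rate constants and affinity fitted from binding curves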
Method: (§1) AAV was amine-coupled to a CM5 sensor chip at a density of 500-800 response units (RU). Nanobodies were injected at seven concentrations (1-100 nM) with a flow rate of 45 μL/min, and chip regeneration was performed using glycine-HCl (pH 1.5). Binding curves at different nanobody concentrations were used to calculate kinetic parameters (Kₐ, Kd, KD) (Table 2 and FIG. 2).

| Binder | Kd | koff | kon |
| --- | --- | --- | --- |
| B1 | 30.4 nM | 0.00272 s⁻¹ | 89400 M⁻¹ s⁻¹ |
| B2 | 324 nM | 0.00417 s⁻¹ | 12900 M⁻¹ s⁻¹ |
| B3 | 146 nM | 0.00031 s⁻¹ | 2130 M⁻¹ s⁻¹ |
| B4 | 69.5 nM | 0.0005 s⁻¹ | 7190 M⁻¹ s⁻¹ |
| B5 | 1.52 nM | 0.00024 s⁻¹ | 158000 M⁻¹ s⁻¹ |
| B6 | 7.41 nM | 0.00155 s⁻¹ | 209000 M⁻¹ s⁻¹ |
| B7 | 37.6 nM | 0.00455 s⁻¹ | 121000 M⁻¹ s⁻¹ |
| B8 | 12.8 nM | 0.00169 s⁻¹ | 132000 M⁻¹ s⁻¹ |
| B9 | 209 nM | 0.00148 s⁻¹ | 7080 M⁻¹ s⁻¹ |
| B10 | 281 nM | 0.00177 s⁻¹ | 6290 M⁻¹ s⁻¹ |
| B11 | 3.64 nM | 0.000669 s⁻¹ | 184000 M⁻¹ s⁻¹ |
| B12 | 7.84 nM | 0.00047 s⁻¹ | 59900 M⁻¹ s⁻¹ |

Molecular target: T2, AAV2 (UniProt P03135 1-735)
T2 construct: also called adeno-associated virus serotype 2
Assay: SPR, AAV on CM5 chip;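 note: surface plasmon resonance with AAV amine-coupled to the chip as ligand, nanobodies injected as analyte over a concentration series, rate constants and affinity fitted from binding curves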
Method: as §1

| Binder | Kd | koff | kon |
| --- | --- | --- | --- |
| B1 | 284 nM | 0.0462 s⁻¹ | 163000 M⁻¹ s⁻¹ |
| B2 | 1180 nM | 0.0554 s⁻¹ | 47000 M⁻¹ s⁻¹ |
| B3 | 155 nM | 0.00137 s⁻¹ | 8850 M⁻¹ s⁻¹ |
| B4 | 0.704 nM | 0.00014 s⁻¹ | 199000 M⁻¹ s⁻¹ |
| B5 | 13.1 nM | 0.00069 s⁻¹ | 52900 M⁻¹ s⁻¹ |
| B6 | 0.798 nM | 4.37e-05 s⁻¹ | 54800 M⁻¹ s⁻¹ |
| B7 | 48.8 nM | 0.00725 s⁻¹ | 148000 M⁻¹ s⁻¹ |
| B8 | 2.53 nM | 0.0004 s⁻¹ | 158000 M⁻¹ s⁻¹ |
| B9 | 639 nM | 0.00069 s⁻¹ |  |
| B10 | 39.5 nM | 0.00015 s⁻¹ | 3800 M⁻¹ s⁻¹ |
| B11 | 1.06 nM | 6.35e-05 s⁻¹ | 60100 M⁻¹ s⁻¹ |
| B12 | 3.36 nM | 0.00066 s⁻¹ | 196000 M⁻¹ s⁻¹ |

Molecular target: T3, AAV9
T3 construct: also called adeno-associated virus serotype 9
Assay: SPR, AAV on CM5 chip;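 note: surface plasmon resonance with AAV amine-coupled to the chip as ligand, nanobodies injected as analyte over a concentration series, rate constants and affinity fitted from binding curves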
Method: as §1

| Binder | Kd | koff | kon |
| --- | --- | --- | --- |
| B1 | 132 nM | 0.0582 s⁻¹ | 439000 M⁻¹ s⁻¹ |
| B2 | 672 nM | 0.0694 s⁻¹ | 103000 M⁻¹ s⁻¹ |
| B3 | 399 nM | 0.0013 s⁻¹ | 3260 M⁻¹ s⁻¹ |
| B4 | 7.29 nM | 0.0011 s⁻¹ | 151000 M⁻¹ s⁻¹ |
| B5 | 13.1 nM | 0.00188 s⁻¹ | 143000 M⁻¹ s⁻¹ |
| B6 | 1.87 nM | 0.00014 s⁻¹ | 74700 M⁻¹ s⁻¹ |
| B7 | 16.1 nM | 0.00269 s⁻¹ | 167000 M⁻¹ s⁻¹ |
| B8 | 16.4 nM | 0.00108 s⁻¹ | 65900 M⁻¹ s⁻¹ |
| B9 | 251 nM | 0.00173 s⁻¹ | 6900 M⁻¹ s⁻¹ |
| B10 | 360 nM | 0.001 s⁻¹ | 2780 M⁻¹ s⁻¹ |
| B11 | 142 nM | 0.0116 s⁻¹ | 81600 M⁻¹ s⁻¹ |
| B12 | 6.8 nM | 0.00129 s⁻¹ | 190000 M⁻¹ s⁻¹ |

Molecular target: T4, AAV5
T4 construct: also called adeno-associated virus serotype 5
Assay: SPR, AAV on CM5 chip;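 note: surface plasmon resonance with AAV amine-coupled to the chip as ligand, nanobodies injected as analyte over a concentration series, rate constants and affinity fitted from binding curves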
Method: as §1

| Binder | Kd | koff | kon |
| --- | --- | --- | --- |
| B1 | 29.6 nM | 0.00028 s⁻¹ | 9460 M⁻¹ s⁻¹ |
| B2 | 18.6 nM | 0.00173 s⁻¹ | 93100 M⁻¹ s⁻¹ |
| B3 | 54.4 nM | 0.00051 s⁻¹ | 9380 M⁻¹ s⁻¹ |
| B4 | 1.57 nM | 0.00028 s⁻¹ | 178000 M⁻¹ s⁻¹ |
| B5 | 7.47 nM | 0.00137 s⁻¹ | 183000 M⁻¹ s⁻¹ |
| B6 | 7.81 nM | 0.00094 s⁻¹ | 120000 M⁻¹ s⁻¹ |
| B7 | 55.3 nM | 0.00933 s⁻¹ | 169000 M⁻¹ s⁻¹ |
| B8 | 6.7 nM | 0.0009 s⁻¹ | 134000 M⁻¹ s⁻¹ |
| B9 | 35.5 nM | 0.00013 s⁻¹ | 3670 M⁻¹ s⁻¹ |
| B10 | 246 nM | 0.00182 s⁻¹ | 7410 M⁻¹ s⁻¹ |
| B11 | 6.47 nM | 0.00098 s⁻¹ | 151000 M⁻¹ s⁻¹ |
| B12 | 12.2 nM | 0.00021 s⁻¹ | 17200 M⁻¹ s⁻¹ |

Molecular target: T5, AAV8 (adeno-associated virus serotype 8)
T5 construct: also called adeno-associated virus serotype 8
Assay: SPR, AAV on CM5 chip
Method: as §1

| Binder | Kd | koff | kon |
| --- | --- | --- | --- |
| B13 | 1.11 nM | 0.00021 s⁻¹ | 188000 M⁻¹ s⁻¹ |
| B14 | 3.25 nM | 2e-05 s⁻¹ | 6150 M⁻¹ s⁻¹ |
| B15 | 7.94 nM | 0.00085 s⁻¹ | 107000 M⁻¹ s⁻¹ |
| B16 | 7.86 nM | 0.0006 s⁻¹ | 76300 M⁻¹ s⁻¹ |
| B17 | 16 nM | 0.00191 s⁻¹ | 120000 M⁻¹ s⁻¹ |
| B18 | 2.27 nM | 0.00035 s⁻¹ | 154000 M⁻¹ s⁻¹ |
| B19 | 848 nM | 0.00101 s⁻¹ | 1190 M⁻¹ s⁻¹ |
| B20 | 860 nM | 0.00596 s⁻¹ | 6930 M⁻¹ s⁻¹ |
| B21 | 10.5 nM | 3e-05 s⁻¹ | 2860 M⁻¹ s⁻¹ |

Molecular target: T6, AAV9 (adeno-associated virus serotype 9)
T6 construct: also called adeno-associated virus serotype 9
Assay: SPR, AAV on CM5 chip
Method: as §1

| Binder | Kd | koff | kon |
| --- | --- | --- | --- |
| B13 | 36.6 nM | 0.0052 s⁻¹ | 142000 M⁻¹ s⁻¹ |
| B14 | 52.5 nM | 0.00051 s⁻¹ | 9720 M⁻¹ s⁻¹ |
| B15 | 3.54 nM | 0.00061 s⁻¹ | 172000 M⁻¹ s⁻¹ |
| B16 | 30.8 nM | 0.00465 s⁻¹ | 151000 M⁻¹ s⁻¹ |
| B17 | 1.65 nM | 0.00011 s⁻¹ | 66600 M⁻¹ s⁻¹ |
| B18 | 42.4 nM | 0.00071 s⁻¹ | 16800 M⁻¹ s⁻¹ |
| B19 | 1680 nM | 0.00356 s⁻¹ | 2120 M⁻¹ s⁻¹ |
| B20 | 347 nM | 0.0014 s⁻¹ | 4040 M⁻¹ s⁻¹ |
| B21 | 451 nM | 0.00093 s⁻¹ | 2060 M⁻¹ s⁻¹ |

Molecular target: T7, AAV5 (adeno-associated virus serotype 5)
T7 construct: also called adeno-associated virus serotype 5
Assay: SPR, AAV on CM5 chip
Method: as §1

| Binder | Kd | koff | kon |
| --- | --- | --- | --- |
| B13 | 31.6 nM | 0.00412 s⁻¹ | 130000 M⁻¹ s⁻¹ |
| B14 | 218 nM | 0.00145 s⁻¹ | 6660 M⁻¹ s⁻¹ |
| B15 | 7.12 nM | 0.00105 s⁻¹ | 148000 M⁻¹ s⁻¹ |
| B16 | 40.4 nM | 0.007 s⁻¹ | 173000 M⁻¹ s⁻¹ |
| B17 | 2.12 nM | 0.00042 s⁻¹ | 198000 M⁻¹ s⁻¹ |
| B18 | 3.74 nM | 0.00022 s⁻¹ | 58800 M⁻¹ s⁻¹ |
| B19 | 703 nM | 0.00353 s⁻¹ | 5020 M⁻¹ s⁻¹ |
| B20 | 37.8 nM | 0.00035 s⁻¹ | 9270 M⁻¹ s⁻¹ |
| B21 | 44 nM | 0.00037 s⁻¹ | 8420 M⁻¹ s⁻¹ |
